Source: the nanobody polyreactivity screen of Harvey et al. (2022)

Assay: yeast display, Sf9 membrane polyspecificity reagent, FACS + sequencing; frameworks hold sequencing errors
Procedure, shortened: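 Polyreactivity labels are assigned by the sorting gate from which each nanobody was recovered. The gates were low and high (top ~1%), set on anti-HA fluorescence for expression and streptavidin fluorescence for reagent binding. Before sorting, galactose-induced (36–48 hours) yeast display cells were stained for 1 hour at 4 °C with 10% biotinylated, detergent-solubilized Sf9 membrane reagent.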

Sequence: QVQLVESGGGLVQAGGSLRLSCAASGFTFLPAYAMGWYRQAPGKERELVAAITRGGSTYYADSVKGRFTISRDNAKNTVYLQMNSLKPEDSAVYYCNADQKFGFYRSVGDDYWGQGTQVTVSS
- polyreactivity (PSR sort gate): low polyreactivity

Sequence: HDQHVESGGGLVQAGGSLRLSCAASGFTFYFYTMGWYRQAPGKERELVAAITGSGGSTYYADSVKARFTFSRDNAKNTVYLQMNSLKPEDTAVYYCAASYYPERVATWRGYYYWGQGTQVTVSS
- polyreactivity (PSR sort gate): high polyreactivity

Sequence: QVQLVESGGGLVQAGGSLRLSCAASGFTLDRYAMGWYRQAPGKERELVAAITQSGVSTYYADSVKGRFTISRDNAKNTVYLQMNSLKPEDTAVYYCNALLRRTDYRYTWGYGYWGQGTQVTVSS
- polyreactivity (PSR sort gate): high polyreactivity

Sequence: QVQLVESGGGLVQAGGSLRLSCAASGSIFRRYALGWYRQAPGKERELVAAISYSGGSTYYADSVKGRFTISRDNAKNTVYLQMNSLKPEDTAVYYCAVVTRKGLYDYWGQGTQVTGSS
- polyreactivity (PSR sort gate): high polyreactivity

Sequence: QVQLVESGGGLVQAGGSLRLSCAASGIIFLHYAMGWYRQAPGKEREFVAAISWSGGSTHYADSVKGRFTISRDNAKNTVYLQMNSLKPEDTAVYYCAAYTFYSYDYWGQGTQVTVSS
- polyreactivity (PSR sort gate): high polyreactivity

Sequence: QVQLVESGGGLVQAGGSLRLSCAASGFIFFRYDMAWYRQAPGKERELVAVITSSGSTNYADSVKGRFTISRDNAKNTVYLQMNSLKPEDTAVYYCNARGYWTWYRGYRMDYWGQGTQVTVSS
- polyreactivity (PSR sort gate): high polyreactivity

Sequence: QVQLVESGGGLVQAGGSLRLSCAASGLILSDYAMGWYRQAPGKERELVATITSVGTTKYADSVKGRVTISRDNAKKTVYVQLHSLKPEDTAVYYCAAEFIRGYGESYDYWGQGTQVTVSS
- polyreactivity (PSR sort gate): low polyreactivity

Sequence: QVQLVESGGGLVQAGGSLRLSCAASGFTFRYYAMGWYRQAPGKEREWVAGISSRGGSTYYADSVKGRFTISRDNAKNTVYLQMNSLKPEDSAVYYCATERFLLGLGYDYWGQGTQVTVSS
- polyreactivity (PSR sort gate): high polyreactivity

Sequence: QVQLVESGGGLVQAGGSLRLSCAASGGTFTWYAMGWYRQAPGKERELVAAISSDGSTYYADSVKGRFTISRDNAKNTVYLQMNSLKPEDTAVYYSAAYSSWGGFDYWGQGTQVTVSS
- polyreactivity (PSR sort gate): low polyreactivity

Sequence: QVHLVESGGGLDQAGGSLRLICAASGSIFDYYAMGWYRQAPGKERELVAAIDNPDSTNYADSVKGRFTLSRDNAKNTVYLQMNSLKPEDTAVYYCAASSRTVWYPGVGYYYWGQGTQVTVSS
- polyreactivity (PSR sort gate): low polyreactivity

Sequence: QVQLVESGGGLVQAGGSLRLSGAASGRTFPYNTMGWYRQAPGKEWELVASITYTDGSTSYAYSVKGRFTISRDNAKNTVYLQMNCLKPEDTAVYYCAADYYAHQDYRFDYCGQGTQVTVSS
- polyreactivity (PSR sort gate): low polyreactivity

Sequence: QVQLVESGGGLVQAGGSLRLSCAASGSTFGVYALGWYIPAPGKERELVDRITWSGGSTYYADSVKGRFTISRDNAKNTVYLQMNSLKPEDTAVFYCAARAWWDWYSPLWYYYWGQGTQVTVSS
- polyreactivity (PSR sort gate): high polyreactivity

Sequence: QVQLVESGGGLVQAGGSLRLSCAASGRIFISNAMGWYRQAPGKERELVAAITWIGDRTYYADSVKGRFTISRDNAKITVYLQMNSLKPEDTAVYYCNRVTSRVSGRYSYDYWGQGTQVTVSS
- polyreactivity (PSR sort gate): high polyreactivity

Sequence: QVQLVESGGGLVQEGGSLRLSCAASGITFGSYAMGWYRQAPGKERELVAAIDTSGDDTYYADSVKGRFTISRDNAKYTVYLQMNSLKPEDTAVYYCAADFPSAEVDYWGQGTQVTVSS
- polyreactivity (PSR sort gate): low polyreactivity

Sequence: QVQLVESGGGLVQAGGSLRLSCAASGSIFVPYAMGWYRQAPGKERELVAAISNGDSTYYADSVKGRFTISRDNAKNTVYLQMNSLKPEDTAVYYCATRGIPDDNARDYWGQGTQVTVSS
- polyreactivity (PSR sort gate): low polyreactivity

Sequence: QVQLVESGGGLVQAGGSLRLSCAASGLIFAPYAMGLYRQAPGKERELVAAISFRGGSTYYADSVKGRFTISRDNAKNTVYFQMNSLKPEDTAVYYSAADWLYDYGEYYYWGQGTQVTVSS
- polyreactivity (PSR sort gate): high polyreactivity

Sequence: QVQLVESGGGLVQAGGSLRLSCAASGLTFASYAMGWYRQAPGKERELVARISRSGGSTYYADSVKGRFTISRDNAKNTVYLQMKSLKPEDTAVYYCAADYIFRRYPVGGIYDYDYWGQGTQVSVSS
- polyreactivity (PSR sort gate): high polyreactivity

Sequence: QDQHVESGGGLVQAGGSLRLSCAASGFTIRNYAMGWYRQAPGKVMELVPAISKRGGNTYYADSVKGRFSISRDNAKNNVYLQLNSLKPEDTAVYFCAADYQFSQDVWHFGYCGQGTQVTVSS
- polyreactivity (PSR sort gate): high polyreactivity

Sequence: QVQLVESGGGLVQAGGSLRLSCAASGFTFYYYAMGWYRQAPGKERELVAGITGSGGRTYYADSVKGRFTISRDNAKNTVYLQMNSLKPEDTAVYYCNARSLWYDYWGQGTQVTVSS
- polyreactivity (PSR sort gate): high polyreactivity

Sequence: QVQLVESGGGLVQAGGSLRLSCAASGGIFDRYAMGWKRQAPGKERELVAVISGSVNTYADSVKGRFTISRDNAKNTGYLRMNSLKPEDTAVYYCATQFEGPSGFNYWGQGTQVTVSS
- polyreactivity (PSR sort gate): low polyreactivity

Sequence: QVQLVESGRGLVQAGGSLRLSCAASGLNFYDNMGWYRQAPGKERDLVAAISSSGGSTSYADSVKGRFTISRDNAKNTVYLQMNSLNPEDTAVYYCAAEWYPYPWGYGYWGQGTQVTVSS
- polyreactivity (PSR sort gate): low polyreactivity

Sequence: QVQLVESGGGLVQAGGSLRLSCAASGFTFYLNAMGWYRQAPGKERELVAAISYSDGSTYYADSVKGRFTISRDNAKNTVYLQMNRLKPEDTAVYFCAADTTDPGGAYQLMDYWGQGTQVTVSS
- polyreactivity (PSR sort gate): high polyreactivity

Sequence: QVHLVESGGVLVQAGGSLRLSCAAYGSTFSWNAMGWYRQSPWKESELVAPITTRGGSTYYADSVKGRFTISRDNAQNTVYLEMNSLKPEDTAVYDCAASYGYRGGWGPGVDYWGQCTQVTVSS
- polyreactivity (PSR sort gate): low polyreactivity

Sequence: QVQLVESGGGLVQAGGSLRLSCAACGRTSSIYAMGWYRQAPGKERELVATITGGAVSTSYADSVKGRFTISRDNAKYTVYLQMNSLKPEDSAVYYCAADHWRYRSRPVNYWRQGTQVTVSS
- polyreactivity (PSR sort gate): high polyreactivity

Sequence: QVQLVESGGGLVQAGGSLRLSCAASGGTFFTNAMGWYRQAPGKERELVAAISRGGSSTYYADSVKGRFTISRDNAKNTVYLQMTSLKPEDTAVYYCNKAYHRRDSEFGYWGQGTQVTVSS
- polyreactivity (PSR sort gate): high polyreactivity

Sequence: QVQLVESGGGLVQAGGSLRLSCAASGSTFKGTAMGWYRQAPGNERELVAAINRSGTSTYYAHSVKGRFTISRDNAKNTVYLQMNSLKPEDTAVYYCANKYFGHRFDYWGQGTQVTVSS
- polyreactivity (PSR sort gate): high polyreactivity

Sequence: QGQLVESGGGLVQAGGSLRLSCAASGSTFGKYVMGWYRQAHGKERELVAAISRSGGSTYYADSVKGRFTISRDNAKNTVYLQLNSLKPDDTAVYYCAAYNGITSHLRFDYWGQGTQVTVSS
- polyreactivity (PSR sort gate): high polyreactivity

Sequence: QVQLVESGGGLVQAGGSLRLSCAASGRIFRYNAMGWYRQAPGKEREFVAAITSSGAGTHYADSVKGRFTISRDNAKNTVYLQMNSLKPEDTAVYYCNARGYYSKNSYDYYTGDYWGQGTQVTVSS
- polyreactivity (PSR sort gate): high polyreactivity

Sequence: QVQLVESGGGLVQAGGSLRLICAASGSTFPTYAMGWYRQAPGKERELVAAISTRGGSTYYADSVKGRFTISRDNAKNTVYLQMNSVKPEDTAVYYCATGKTVGRYHYEYWGQGTQVTVSS
- polyreactivity (PSR sort gate): low polyreactivity

Sequence: QVQLVESGGGLVQAGGSLRLRCADSGRNFVSNAMGWYRQAPGKERELVAAISKSGARTSYADSVKGRFTISRDNAKNTVYLQMNRLKPEDTAVYYCAAPVRWSGGGEYPNYYWGQGTQVTVSS
- polyreactivity (PSR sort gate): high polyreactivity

Sequence: QVQLVESGGGLVHAGGSLSLSCAASGSIFPGYAMGWYRQAPGKERELVAGITWSDARTYYADSVKGRFTISRDNAKNTVYLQMNSLKPEDTAVYYCAADYYYYERDYWGKGTQVTVSS
- polyreactivity (PSR sort gate): low polyreactivity

Sequence: QVQLVESGGGLVQAGGSLRLSCAASGSTFPKYAMGWYRQAPGKERELVAVITSGGSTYYADSVMGRFTISRDNAKNTVYLQMNSLKPEDTAVYYCAARKYRRFDYWGQGTQVTVSS
- polyreactivity (PSR sort gate): high polyreactivity

Sequence: QVQLVESGGGLVQAGGSLRLSCAASGFIFDRNAMGWYRQAPGKERELVAAISKSGGSTYYADSVKGRFSISRDNAKNTVYLQMNSLKPEDTAVYYCAADRPTIRYNSWGQGTQVTVSS
- polyreactivity (PSR sort gate): high polyreactivity

Sequence: QVQLVESGGGLVQAGGSLRLSCAASGSIFRHNVMGWYRQAPGKERELVAAISGGGGRTYYADSVKGRFTISRDNAKNTVYLQMNSLKPEDTAVYYCNAYVGLSEGDYWGQGTQVTVSS
- polyreactivity (PSR sort gate): high polyreactivity

Sequence: QVQLVESGGGLVQAGGSLRLSCAASGVIFWEYAMGWYRQAPGKERELVAAISTSGGSTYYADSVKGRFTISRDNAKNTVYLQMISLKPEDTAVYYCAVDGWDDTYFRQDMDYWGQGTQVTVSS
- polyreactivity (PSR sort gate): low polyreactivity

Sequence: QVQLVESGGGLVQAGGSLRLSCAASGYTFSHYAMGWYRQAPGTERELVAGITWSGGSTYYADSVKGRFTISRDNAKNTVYLQMNSLKPEDTSVYYCAAKYYWYYSYSGIPLFDYWGQGTQVTVSS
- polyreactivity (PSR sort gate): low polyreactivity

Sequence: QVQLVESGGGLVQAGGSLRLSCAASGITIVLYTMGWYRQAPGKEREFVAGITRGGSTYYADSVKGRFTISRDNAKNTVYLQMNSLKPEDTSVYYCAARPRFLRASVEYDYWGQGTQVTVSS
- polyreactivity (PSR sort gate): high polyreactivity

Sequence: QDQLVESRGGLVQAGGSLRLSCAASGRTFISNAMGWYRQAPGKERELVAADISWSGGSTYYADSVKGRFTISRDNAKNTVYLQMNIMKPEDTAVYYCNTVIRPYLAYTWSEIFDYWGQGTQVNVSS
- polyreactivity (PSR sort gate): low polyreactivity

Sequence: QVQLVESGGGLVQAGGSLRLSCAASGSTFEWYTMGWYRQAPGKERELVAAINGGGSTKYADSVKGRFTISRDNAKKTVYLQMNSLKPEDTAVYYCNLKYGMYWGQGTQVTVSS
- polyreactivity (PSR sort gate): high polyreactivity

Sequence: QVQLVESGGGLVQAGGSLRLTCAPSGSTLLVYAMGWNRQAPGKERELVAAISGSGGRTSYADSVKGRFTISRDNAKNTVYLQMNSLKPEDTAVYYCAARRAGTYDYWGEGTQVTVSS
- polyreactivity (PSR sort gate): high polyreactivity

Sequence: QVQLVESGGGLVQAGGSLRLSCAASGRTLRQYAMGRYRQAPGKERELVAAISRGGSTTYADSVKGRFTISRDNAKNTVYLQMNSLKPEDTAVYYCNAELNWYYYIHLDYWGQGTQVTVSS
- polyreactivity (PSR sort gate): low polyreactivity

Sequence: QVQLVESGGGLLQAGGSLRISCAASGRIFYAKAMGRYRQAPGKERELVAGISSGGITNYADSVKGRFTISRDNAKNTVYLQMNSLKPEDTAVYYCAVESWNRWRNRNDYWGQGTQVSVSS
- polyreactivity (PSR sort gate): low polyreactivity

Sequence: QVQLVESGGGLVQAGGSLRLSCAASGRIFYRYAMGWDSQAPGKERELVAAISCGGSTYYADSVKGRFTISRDNAKNTVYLQMNSLKPEDSAVYYCAATWGRGTYYLYYYWGQGTQVTVSS
- polyreactivity (PSR sort gate): high polyreactivity
